Five molecules from article PMC8189437 (Molecular Cell, 2021) can be followed below.

T1: Gid9 (S. cerevisiae, UniProt P40492 1-516)
T1 sequence: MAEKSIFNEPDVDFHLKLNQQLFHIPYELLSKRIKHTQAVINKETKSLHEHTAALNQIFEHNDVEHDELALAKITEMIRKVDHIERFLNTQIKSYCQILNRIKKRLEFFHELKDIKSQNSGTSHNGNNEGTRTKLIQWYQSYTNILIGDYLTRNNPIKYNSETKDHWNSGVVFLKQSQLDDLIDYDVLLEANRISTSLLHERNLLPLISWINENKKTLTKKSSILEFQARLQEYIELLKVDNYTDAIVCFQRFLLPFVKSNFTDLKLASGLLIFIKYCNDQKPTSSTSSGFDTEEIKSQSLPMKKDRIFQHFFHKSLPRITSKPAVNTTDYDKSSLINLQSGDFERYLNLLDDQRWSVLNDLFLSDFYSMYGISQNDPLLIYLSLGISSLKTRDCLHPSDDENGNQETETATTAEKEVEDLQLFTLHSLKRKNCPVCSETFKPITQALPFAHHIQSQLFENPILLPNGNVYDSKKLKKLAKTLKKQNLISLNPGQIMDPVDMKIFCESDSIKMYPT

T2: Gid1 (S. cerevisiae, UniProt P53076)
T2 sequence: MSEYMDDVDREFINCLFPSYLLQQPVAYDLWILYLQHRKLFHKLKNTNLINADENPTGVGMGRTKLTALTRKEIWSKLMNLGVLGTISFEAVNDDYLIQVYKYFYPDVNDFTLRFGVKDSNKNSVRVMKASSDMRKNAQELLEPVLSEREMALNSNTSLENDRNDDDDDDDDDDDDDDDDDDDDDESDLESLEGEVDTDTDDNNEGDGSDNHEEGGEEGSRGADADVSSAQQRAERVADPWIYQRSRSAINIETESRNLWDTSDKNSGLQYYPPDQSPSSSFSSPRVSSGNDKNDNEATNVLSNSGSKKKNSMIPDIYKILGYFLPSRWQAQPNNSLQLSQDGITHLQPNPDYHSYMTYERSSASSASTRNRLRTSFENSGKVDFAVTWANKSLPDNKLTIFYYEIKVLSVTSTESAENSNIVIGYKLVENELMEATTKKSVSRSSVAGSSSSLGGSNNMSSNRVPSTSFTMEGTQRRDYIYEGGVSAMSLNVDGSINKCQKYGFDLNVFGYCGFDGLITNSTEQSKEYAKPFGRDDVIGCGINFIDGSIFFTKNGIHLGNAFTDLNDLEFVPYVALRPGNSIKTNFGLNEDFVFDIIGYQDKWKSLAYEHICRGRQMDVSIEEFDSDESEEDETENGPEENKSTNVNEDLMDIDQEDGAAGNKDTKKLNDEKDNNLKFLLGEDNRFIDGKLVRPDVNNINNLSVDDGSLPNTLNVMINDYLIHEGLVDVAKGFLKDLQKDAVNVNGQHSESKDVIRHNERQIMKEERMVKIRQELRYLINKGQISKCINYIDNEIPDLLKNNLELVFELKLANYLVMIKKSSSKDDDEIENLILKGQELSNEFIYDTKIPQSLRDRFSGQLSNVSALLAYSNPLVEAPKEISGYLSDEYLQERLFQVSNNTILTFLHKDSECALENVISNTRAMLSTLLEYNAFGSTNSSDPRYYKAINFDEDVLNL

T3: Gid5 (S. cerevisiae, UniProt P40547)
T3 sequence: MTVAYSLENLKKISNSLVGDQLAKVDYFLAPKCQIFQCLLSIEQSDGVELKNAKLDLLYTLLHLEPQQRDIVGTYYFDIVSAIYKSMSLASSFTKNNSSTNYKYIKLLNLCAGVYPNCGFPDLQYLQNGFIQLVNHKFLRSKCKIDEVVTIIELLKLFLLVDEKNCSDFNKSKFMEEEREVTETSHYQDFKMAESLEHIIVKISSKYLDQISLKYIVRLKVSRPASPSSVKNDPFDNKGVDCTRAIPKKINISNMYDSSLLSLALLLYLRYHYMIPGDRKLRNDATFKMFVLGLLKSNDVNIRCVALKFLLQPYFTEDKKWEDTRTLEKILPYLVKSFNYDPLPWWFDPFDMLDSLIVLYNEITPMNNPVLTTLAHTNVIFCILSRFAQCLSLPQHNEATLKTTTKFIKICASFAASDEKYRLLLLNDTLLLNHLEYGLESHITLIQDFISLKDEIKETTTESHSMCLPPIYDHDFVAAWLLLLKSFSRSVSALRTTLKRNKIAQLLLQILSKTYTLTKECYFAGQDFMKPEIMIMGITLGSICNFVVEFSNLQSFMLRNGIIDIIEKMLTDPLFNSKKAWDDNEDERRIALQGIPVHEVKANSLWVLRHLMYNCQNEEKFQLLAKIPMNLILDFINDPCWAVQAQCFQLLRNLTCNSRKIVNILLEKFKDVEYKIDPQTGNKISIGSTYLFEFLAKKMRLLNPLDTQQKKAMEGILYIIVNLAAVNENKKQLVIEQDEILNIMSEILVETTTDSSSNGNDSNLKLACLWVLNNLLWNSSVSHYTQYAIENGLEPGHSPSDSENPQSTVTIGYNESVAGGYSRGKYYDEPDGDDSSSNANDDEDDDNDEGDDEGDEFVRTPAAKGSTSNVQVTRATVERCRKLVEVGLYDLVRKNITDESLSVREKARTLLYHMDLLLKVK

B1: Gid2 (natural protein)
chain: MSELLDSFETEFAKFYTDSNLEETNLQKCLDHTHEFKSQLKKLKAHLNKHIQESKPEVYNKLSDKEKQKFKRKRELIIEKLSKSQRQWDHSVKKQIKYVSQQSNRFNKSTLNKLKEFDIDSVYVNKLPKETMENVNEAIGYHILRYSIDNMPLGNKNEAFQYLKDVYGITNKESTEFIEMGQIVHDLKKGDTESCLKWCSNEMESLSSNHTALSSLKFDLYTLSAMQIVKHGNPVELYYQITQNAPLDCFRHREKELMQNVVPLLTKSLIGQPIEDIDSKVNKELKECTSLFIKEYCAAKHIFFDSPLFLIVLSGLISFQFFIKYKTIRELAHVDWTTKDELPFDVKLPDFLTHFHPIFICPVLKEETTTENPPYSLACHHIISKKALDRLSKNGTITFKCPYCPVNTSMSSTKKVRFVML
B2: Gid8 with a C-terminal twin-Strep tag (natural protein)
chain: MTISTLSNETTKSGSCSGQGKNGGKDFTYGKKCFTKEEWKEQVAKYSAMGELYANKTIHYPLKIQPNSSGGSQDEGFATIQTTPIEPTLPRLLLNYFVSMAYEDSSIRMAKELGFIRNNKDIAVFNDLYKIKERFHIKHLIKLGRINEAMEEINSIFGLEVLEETFNATGSYTGRTDRQQQQQQQQFDIDGDLHFKLLLLNLIEMIRSHHQQENITKDSNDFILNLIQYSQNKLAIKASSSVKKMQELELAMTLLLFPLSDSADSGSIKLPKSLQNLYSISLRSKIADLVNEKLLKFIHPRIQFEISNNNSKFPDLLNSDKKIITQNFTVYNNNLVNGSNGTKITHISSDQPINEKMSSNEVTAAANSVWLNQRDGNVGTGSAATTFHNLENKNYWNQTSELLSSSNGKEKGLEFNNYYSSEFPYEPRLTQIMKLWCWCENQLHHNQIGVPRVEN
B3: Gid4 (Δ1-116) (domain or fragment)
chain: TVCTNYLRPRMQFTGYQISGYKRYQVTVNLKTVDLPKKDCTSLSPHLSGFLSIRGLTNQHPEISTYFEAYAVNHKELGFLSSSWKDEPVLNEFKATDQTDLEHWINFPSFRQLFLMSQKNGLNSTDDNGTTNAAKKLPPQQLPTTPSADAGNISRIFSQEKQFDNYLNERFIFMKWKEKFLVPDALLMEGVDGASYDGFYYIVHDQVTGNIQGFYYHQDAEKFQQLELVPSLKNKVESSDCSFEFA
B4: fructose-1,6-bisphosphatase (Fbp1), C-terminally 6xHis-tagged (enzyme)
chain: PTLVNGPRRDSTEGFDTDIITLPRFIIEHQKQFKNATGDFTLVLNALQFAFKFVSHTIRRAELVNLVGLAGASNFTGDQQKKLDVLGDEIFINAMRASGIIKVLVSEEQEDLIVFPTNTGSYAVCCDPIDGSSNLDAGVSVGTIASIFRLLPDSSGTINDVLRCGKEMVAACYAMYGSSTHLVLTLGDGVDGFTLDTNLGEFILTHPNLRIPPQKAIYSINEGNTLYWNETIRTFIEKVKQPQADNNNKPFSARYVGSMVADVHRTFLYGGLFAYPCDKKSPNGKLRLLYEAFPMAFLMEQAGGKAVNDRGERILDLVPSHIHDKSSIWLGSSGEIDKFLDHIGKSQ

One data set deals with GST-WDR26 (human) (UniProt Q9H7D7). Description: cryo-EM structure.
In data set [1] the target is B2. Description: cryo-EM structure.
For the next data set, the target named is T1, Gid9. Description: cryo-EM structure.
The target in the next data set is T2, Gid1. Description: cryo-EM structure.
The target of the next data set is T3, Gid5. In words: cryo-EM structure.
The data set “crystal structure” deals with the molecule itself. Description: crystal structure.

What is called stoichiometry N is a count of units in the complex or per binding partner.

Turning to “GST-WDR26 (from UniProt Q9H7D7 1-661) (natural protein)”, the stoichiometry N with GST-WDR26 (human) came to 2.
For the molecule B1, the binding result (in data set [1]; with Gid9) was “binds” in each case.
As to B2, the binding result with Gid1 and with Gid9 was “binds” throughout.
Regarding B3, the binding result with Gid5 is recorded as “binds”.
Take B4: the “stoichiometry N” value in “crystal structure” worked out at 4.
